Consider four molecules from patent publication US20210122795A1 (CITY OF HOPE, published 2021).

Ends that are not written are not given here.

B1: Peptide 16 (chemically synthesized cyclic peptide) (peptide)
peptide: CWSPLPFMC
modifications: also: cyclic peptide, ring type not given here
notes: Immobilized on a CM5 chip in the SPR; also called Pep16
B2: Peptide 12 (chemically synthesized cyclic peptide) (peptide)
peptide: CSVLPPFMC
modifications: also: cyclic peptide, ring type not given here
notes: Immobilized on a CM5 chip in the SPR; also called Pep12
B3: mLcn2 (modified lipocalin2, monomeric) (designed binder)
chain: QDSTSDLIPAPPLSKVPLQQNFQDNQFHGKWYVVGLAGNRILRDDQHPMNMYATIYELKEDKSYNVTSVISSHKKCEYTIATFVPGSQPGEFTLGNIKSYGDKTSYLVRVVSTDYNQYAVVFFKLAEDNAEFFAITIYGRTKELASELKENFIRFSKSLGLPENHIVFPVPIDQCIDG
notes: Engineered lipocalin 2; also called monomeric mLCN2

Experiment [1] deals with B3. The experiment in a line: crystal structures of the peptide-mLcn2 complexes.
Experiment [2] has as its target B1. The experiment in a line: SPR; analyte mLcn2 flowed over Peptide16 immobilized on a CM5 chip; analyte mLcn2 flowed over Peptide16 immobilized to a CM5 chip. The text has this:
FIG. 14A: mLCN2 vs. Pep16. Surface plasmon resonance of analyte mLcn2 flowed over ligand Peptide16 immobilized to a CM5 chip. Representative results are shown from three independent experiments.

In experiment [3] the target is T1, CTLA-4-Fc (recombinant bivalent CTLA-4 fused to the human IgG1 Fc) (human, UniProt P16410 36-161, Homodimer through the IgG1 Fc (bivalent); the Fc is left out of the letters.).
T1 construct: also called dimeric CTLA-4-Fc; CTLA-4 (in the SEC legends); not shown: human IgG1 Fc and any linker of the CTLA-4-Fc fusion
Description: SPR; dimeric CTLA-4-Fc immobilized at medium density on a CM5 chip; analyte 3-1000 nM. The method, then:
(§1) FIG. 10A: SPR analysis. Dimeric CTLA-4-Fc was immobilized at medium density to a CM5 chip. A range of 3-1000 nM monomeric mLCN2 (top) and 3-300 nM dimeric mLCN2-Fc (bottom) analytes were used for kinetics analyses. […] Concentration of analytes is 1000; 300; 30; and 3 nM.

For experiment [4], the target named is T1, CTLA-4-Fc (recombinant bivalent CTLA-4 …). The experiment in a line: SPR; dimeric CTLA-4-Fc immobilized at medium density on a CM5 chip; analyte 3-300 nM. The method, then:
as §1

For experiment [5], the target named is B2. The experiment in a line: SPR; analyte mLcn2-Fc flowed over Peptide12 immobilized on a CM5 chip. The text has this:
FIG. 14B: mLCN2-Fc vs. Pep12. Surface plasmon resonance of analyte mLcn2-Fc flowed over ligand Peptide12 immobilized to a CM5 chip. Representative results are shown from three independent experiments.

T1 sequence (P16410 36-161 limits assumed): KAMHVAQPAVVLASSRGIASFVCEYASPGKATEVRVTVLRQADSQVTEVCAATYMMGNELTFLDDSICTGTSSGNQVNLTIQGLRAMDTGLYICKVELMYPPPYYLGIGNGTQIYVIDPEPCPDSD

For the molecule B1, the binding result in experiment [1] was “binds”.
In the case of B2, the binding result in experiment [1] is given as “binds”.
Regarding B3, the Kd in experiment [2] was 4.6 µM. Also, in experiment [3], the koff turned out to be 0.0002 s⁻¹ and the kon worked out at 36000 M⁻¹ s⁻¹.

B4: mLcn2-Fc (unmodified, without N-terminal mask) (Fc fusion)
chain: QDSTSDLIPAPPLSKVPLQQNFQDNQFHGKWYVVGLAGNRILRDDQHPMNMYATIYELKEDKSYNVTSVISSHKKCEYTIATFVPGSQPGEFTLGNIKSYGDKTSYLVRVVSTDYNQYAVVFFKLAEDNAEFFAITIYGRTKELASELKENFIRFSKSLGLPENHIVFPVPIDQCIDG
notes: also called dimeric mLCN2-Fc; unmodified mLcn2-Fc; not shown: flexible linker between mLcn2 and Fc; human IgG1 Fc domain
For B4, the kon in experiment [4] is 10000 M⁻¹ s⁻¹. In experiment [5], this molecule displayed a Kd of 3.4 µM.
